Reference: patent publication US20210253725A1 (BIONTECH, published 2021)

How the values were obtained:
[1] = biological target: T1, CD137 expressed on the cell surface of HT1080_4-1BB cells (human, UniProt Q07011 24-255); test: cell-based or functional assay
[2] = biological target: T1, CD137 expressed on the cell surface of …; test: HT1080_4-1BB cells, imaging; note: test concentration or dose not given here
[3] = biological target: T2, CD137 protein (His-tagged, Sino Biological Inc. 10041-H08H) (human, UniProt Q07011 24-186); test: ELISA, coated His-tagged CD137; note: test concentration or dose not given here
T2 construct: bought protein coated on ELISA plates; also called 4-1BB; TNFRSF9; not shown: His tag

human 4-1BB (CD137) = human 4-1BB (CD137) (human, UniProt Q07011 24-255); test: cell-based or functional assay
human 4-1BB (CD137), sequence (Q07011 24-255): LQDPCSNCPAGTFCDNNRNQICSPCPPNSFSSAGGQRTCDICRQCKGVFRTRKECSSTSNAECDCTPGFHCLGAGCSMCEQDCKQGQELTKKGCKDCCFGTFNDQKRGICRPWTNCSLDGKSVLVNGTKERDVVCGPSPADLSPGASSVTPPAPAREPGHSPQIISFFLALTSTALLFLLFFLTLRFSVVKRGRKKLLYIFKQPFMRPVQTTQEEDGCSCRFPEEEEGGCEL
Throughout, for Functional assay Cross-linked by F(ab′)2 fragment IL-8: test concentration or dose not given here.
Throughout, for Functional assay IL-8: test concentration or dose not given here.

T1 sequence (Q07011 24-255): as above

B1: P018.S.13.A.A05 (antibody, V domains shown)
VH: QSLEESGGRLVTPGTPLTLTCTASGFSLSRYDMSWVRQAPGKGLEYIGVISSSGGTNYANWAKGRFTISKTSTTVDLKITSPTTEDTATYFCAREGDYWDFNLWGPGTLVTVSS
VL: AQVLTQTPSSVSAAVGGTVTINCQASQSISNLLAWYQQKPGQPPKLLIYGASTLASGVPSRFSGSGSGTEFTLTISDLESDDAATYYCAGGFPGLDTVAAFGGGTEAVVT
notes: V regions on human Ig constant parts; also called AB137_4
- Functional assay Cross-linked by F(ab′)2 fragment IL-8 [1]: 2.57 abs. corr.
- Functional assay IL-8 [1]: 0.559 abs. corr.
- Cellular binding assay [RFU] [2]: 0 RFU
- ELISA [abs. corr.] [3]: 0.687 abs. corr.

B2: P018.S.14.A.H01 (antibody, V domains shown)
VH: QSVEESGGRLVTPGTPLTLTCTVSGFSLSDYYMTWVRQAPGKGLEYIGIMSGSGSTYYASWAKGRFTISKTSSTTLELKITSPTTEDTAIYFCARDGDYAGWGYATGAFDPWGPGTLVTVSS
VL: AAVLTQTPSPVSAAVGGTVTISCQASQSVVGNSLLSWFQKKPGQPPKLLIYSASSLASGVPSRFKGSGSGTQFTLTISDLESDDAATYYCTGRYNSDTDTFVFGGGTEVVVK
notes: V regions on human Ig constant parts; also called AB137_12
- Functional assay Cross-linked by F(ab′)2 fragment IL-8 [1]: 2.19 abs. corr.
- Functional assay IL-8 [1]: 2.02 abs. corr.
- Cellular binding assay [RFU] [2]: 6 RFU
- ELISA [abs. corr.] [3]: 2.97 abs. corr.

B3: P018.S.08.A.E03 (antibody, V domains shown)
VH: QSVEESGGRLVTPGTPLTLTCTVSGFSLTYYAVTWVRQPPGKGLEWIGVIYDNGATAFATWAKGRFTMSKNSTTVALKVTSPTTEDTATYFCARSANNAWSTYSNLWGQGTLVTVSS
VL: DIVMTQTPSSVSAAVGGTVTINCQASEDISSYLSWYQQKLGQPPKLLIYKASTLESGVPSRFKGSGSGTEYTLTISDLESDDAATYYCQSYYSGSISGYGFVFGGGTGVVVK
notes: V regions on human Ig constant parts; also called AB137_2
- Functional assay Cross-linked by F(ab′)2 fragment IL-8 [1]: 2.02 abs. corr.
- Functional assay IL-8 [1]: -0.304 abs. corr.
- Cellular binding assay [RFU] [2]: 9 RFU
- ELISA [abs. corr.] [3]: 3.05 abs. corr.

B4: P018.S.13.A.G04 (antibody, V domains shown)
VH: QSLEESGGRLVTPGTPLTLTCTASGFSLSSYDMSWVRQAPGKGLEYIGYISSSGNTYYASWAKSRFTISKTSTTVDLKITSPTTEDTATYFCAREGDYWDFNLWGPGTLVTVSS
VL: AQVLTQTPSSVSAAVGGTVTINCQASQSISNLLAWYQQKPGQRPRLLIYRASTLASGVPSRFKGSGSGTEFTLTISDLESEDAATYYCAGGFPGLDTGATFGGGTEAVVT
notes: V regions on human Ig constant parts; also called AB137_8
- Functional assay Cross-linked by F(ab′)2 fragment IL-8 [1]: 1.8 abs. corr.
- Functional assay IL-8 [1]: -0.179 abs. corr.
- Cellular binding assay [RFU] [2]: 1 RFU
- ELISA [abs. corr.] [3]: 0.577 abs. corr.

B5: P018.S.13.A.A06 (antibody, V domains shown)
VH: QSVEESGGRLVTPGTPLTLTCTASGFTISDFHVTWVRQAPGKGLEWIGTIITSASTTAYATWARGRFTISKSSTTVNLKIVSPTTEDTATYFCARSTYTDTSGYYFDFWGQGTLVTVSS
VL: AQVLTQTASPVSAAVGGTVIINCQSSQSIYNGNRLSWYQQKPGQPPKLLIYSASTLASGVSSRFKGSGSGTQFTLAISDVQSDDAATYYCLGSYDCDSADCFAFGGGTEVVVE
notes: V regions on human Ig constant parts; also called AB137_5
- Functional assay Cross-linked by F(ab′)2 fragment IL-8 [1]: 1.71 abs. corr.
- Functional assay IL-8 [1]: -0.153 abs. corr.
- Cellular binding assay [RFU] [2]: 38 RFU
- ELISA [abs. corr.] [3]: 3.39 abs. corr.

B6: P018.S.08.A.A04 (antibody, V domains shown)
VH: QSVEESGGRLVTPGTPLTLTCTVSGFSLSSYAVSWVRQAPGKGLEWIGVIWNNGATHYATWAKGRFTISKASTTVDLKVTSPTTEDTATYFCARSANDAWSTYSDLWGQGTLVTVSS
VL: DIVMTQTPASVEAAVGGTVTIKCQASQTITNYLSWYQQKPGQPPKLLIYKASTLTSGVSSRFKGSGSGTEFTLTISDLESDDAATYYCQNYYYGSSSGYGFVFGGGTEVVVK
notes: V regions on human Ig constant parts; also called AB137_1
- Functional assay Cross-linked by F(ab′)2 fragment IL-8 [1]: 1.55 abs. corr.
- Functional assay IL-8 [1]: 0.368 abs. corr.
- Cellular binding assay [RFU] [2]: 46 RFU
- ELISA [abs. corr.] [3]: 3.42 abs. corr.

B7: P018.S.14.A.D06 (antibody, V domains shown)
VH: QSVEESGGRLVTPGTPLTLTCTVSGFSLSTYAMIWVRQAPGKGLEWIGVVYDNGYISHATWVKGRFTISKTSTTVGLEITSPTTEDTATYFCARSADGSWSTYFNLWGQGTLVTVSS
VL: DIVMTQTPASVEAAVGGTVTIKCQASESISNYLAWYQQKPGQPPKLLIYKASTLASGVSSRFKGSGSGTEFTLTISDLESADAATYYCQTNYCCSSSDNGFAFGGGTEVVVK
notes: V regions on human Ig constant parts; also called AB137_10
- Functional assay Cross-linked by F(ab′)2 fragment IL-8 [1]: 1.52 abs. corr.
- Functional assay IL-8 [1]: -0.011 abs. corr.
- Cellular binding assay [RFU] [2]: 1 RFU
- ELISA [abs. corr.] [3]: 2.9 abs. corr.

B8: P018.S.13.A.C02 (antibody, V domains shown)
VH: QSVEESGGRLVTPGTPLTLTCTVSGFSLSSYAMSWVRQAPGKGLEWIGIISTSGITYYASWAKGRFTISKTSTMVDLKITSPTTEDTATYFCARLNGFDDYVRYFDFWGLGTLVTVSS
VL: AIELTQTPSSVSAAVGGTVTINCQASESIASNLAWYQQKPGQPPKLLIYAASYLASGVPSRFKGSGSGTEYTLTISGVQSADAATYYCQSAFYVSSSDNAFGGGTEVVVK
notes: V regions on human Ig constant parts; also called AB137_6
- Functional assay Cross-linked by F(ab′)2 fragment IL-8 [1]: 1.4 abs. corr.
- Functional assay IL-8 [1]: 0.113 abs. corr.
- Cellular binding assay [RFU] [2]: 8 RFU
- ELISA [abs. corr.] [3]: 2.55 abs. corr.

B9: P018.S.08.A.F03 (antibody, V domains shown)
VH: QSVEESGGRLVTPGTPLTLTCTASGFTISSYHMIWVRQAPGEGLEWIGDIYGGTATTDYASWAKGRFTISKTSTTVDLKMTSLTTEDTATYFCARARYSGGSYANYVFNLWGQGTLVTVSS
VL: DIVMTQTPASVEAAVGGTVTIKCQASQSISSYLAWYQQKPGQPPKLLIYRTSTLESGVPSRFKGSGSGTEFTLTISDLESADAATYYCQGYDWSSSNRYDNTFGGGTEVVVK
notes: V regions on human Ig constant parts; also called AB137_3
- Functional assay Cross-linked by F(ab′)2 fragment IL-8 [1]: 1.36 abs. corr.
- Functional assay IL-8 [1]: -0.346 abs. corr.
- Cellular binding assay [RFU] [2]: 7 RFU
- ELISA [abs. corr.] [3]: 2.33 abs. corr.

B10: P018.S.13.A.G03 (antibody, V domains shown)
VH: QSLEESGGRLVTPGTPLTLTCTASGFSLSSYDVSWVRQAPGKGLEYIGFIGSDGSAHYATWVKGRFTISKTSTTVDLKITSPTTEDTATYFCARDWNDYWAHDLWGPGTLVTVSS
VL: AQVLTQTTSPVSAAVGGTVTINCQASQIVTSKSALSWYQQKPGQPPRLLIYKASTLASGVPSRFSGSGSGTQFTLTISDLESDDAATYYCAGGYYNSGDLNPFGGGTEVVVK
- EC 50 [ng/mL] of agonistic function (IL-8 release from CD137-overexpressing HT1080 cells, antibody cross-linked by F(ab')2 goat anti-human IgG) (human 4-1BB (CD137)): 4780 ng/mL

B11: P018.S.08.A.E03 (antibody, V domains shown)
VH: QSVEESGGRLVTPGTPLTLTCTVSGFSLTYYAVTWVRQPPGKGLEWIGVIYDNGATAFATWAKGRFTMSKNSTTVALKVTSPTTEDTATYFCARSANNAWSTYSNLWGQGTLVTVSS
VL: DIVMTQTPSSVSAAVGGTVTINCQASEDISSYLSWYQQKLGQPPKLLIYKASTLESGVPSRFKGSGSGTEYTLTISDLESDDAATYYCQSYYSGSISGYGFVFGGGTGVVVK
- EC 50 [ng/mL] of agonistic function (IL-8 release from CD137-overexpressing HT1080 cells, antibody cross-linked by F(ab')2 goat anti-human IgG) (human 4-1BB (CD137)): 4960 ng/mL

B12: P018.S.08.A.A04 (antibody, V domains shown)
VH: QSVEESGGRLVTPGTPLTLTCTVSGFSLSSYAVSWVRQAPGKGLEWIGVIWNNGATHYATWAKGRFTISKASTTVDLKVTSPTTEDTATYFCARSANDAWSTYSDLWGQGTLVTVSS
VL: DIVMTQTPASVEAAVGGTVTIKCQASQTITNYLSWYQQKPGQPPKLLIYKASTLTSGVSSRFKGSGSGTEFTLTISDLESDDAATYYCQNYYYGSSSGYGFVFGGGTEVVVK
- EC 50 [ng/mL] of agonistic function (IL-8 release from CD137-overexpressing HT1080 cells, antibody cross-linked by F(ab')2 goat anti-human IgG) (human 4-1BB (CD137)): 5150 ng/mL

B13: P018.S.14.A.H01 (antibody, V domains shown)
VH: QSVEESGGRLVTPGTPLTLTCTVSGFSLSDYYMTWVRQAPGKGLEYIGIMSGSGSTYYASWAKGRFTISKTSSTTLELKITSPTTEDTAIYFCARDGDYAGWGYATGAFDPWGPGTLVTVSS
VL: AAVLTQTPSPVSAAVGGTVTISCQASQSVVGNSLLSWFQKKPGQPPKLLIYSASSLASGVPSRFKGSGSGTQFTLTISDLESDDAATYYCTGRYNSDTDTFVFGGGTEVVVK
- EC 50 [ng/mL] of agonistic function (IL-8 release from CD137-overexpressing HT1080 cells, antibody cross-linked by F(ab')2 goat anti-human IgG) (human 4-1BB (CD137)): 5820 ng/mL

B14: P018.S.14.A.A04 (antibody, V domains shown)
VH: QSLEESGGRLVTPGTPLTLTCTVSGFSLNDYWMSWVRQAPGKGLEWIGYIDVGGSLYYASWAKGRFTISRTSTTVDLKMTSLTTEDTATYFCARGGLTYGFDLWGPGTLVTVSS
VL: DIVMTQTPASVSEPVGGTVTINCQASEDISSYLAWYQQKPGQRPKRLIYGASDLASGVPSRFSASGSGTEYALTISDLESADAATYYCHYYATISGLGVAFGGGTEVVVK
- EC 50 [ng/mL] of agonistic function (IL-8 release from CD137-overexpressing HT1080 cells, antibody cross-linked by F(ab')2 goat anti-human IgG) (human 4-1BB (CD137)): 6790 ng/mL

B15: P018.S.13.A.A06 (antibody, V domains shown)
VH: QSVEESGGRLVTPGTPLTLTCTASGFTISDFHVTWVRQAPGKGLEWIGTIITSASTTAYATWARGRFTISKSSTTVNLKIVSPTTEDTATYFCARSTYTDTSGYYFDFWGQGTLVTVSS
VL: AQVLTQTASPVSAAVGGTVIINCQSSQSIYNGNRLSWYQQKPGQPPKLLIYSASTLASGVSSRFKGSGSGTQFTLAISDVQSDDAATYYCLGSYDCDSADCFAFGGGTEVVVE
- EC 50 [ng/mL] of agonistic function (IL-8 release from CD137-overexpressing HT1080 cells, antibody cross-linked by F(ab')2 goat anti-human IgG) (human 4-1BB (CD137)): 7790 ng/mL

B16: P018.S.14.A.D06 (antibody, V domains shown)
VH: QSVEESGGRLVTPGTPLTLTCTVSGFSLSTYAMIWVRQAPGKGLEWIGVVYDNGYISHATWVKGRFTISKTSTTVGLEITSPTTEDTATYFCARSADGSWSTYFNLWGQGTLVTVSS
VL: DIVMTQTPASVEAAVGGTVTIKCQASESISNYLAWYQQKPGQPPKLLIYKASTLASGVSSRFKGSGSGTEFTLTISDLESADAATYYCQTNYCCSSSDNGFAFGGGTEVVVK
- EC 50 [ng/mL] of agonistic function (IL-8 release from CD137-overexpressing HT1080 cells, antibody cross-linked by F(ab')2 goat anti-human IgG) (human 4-1BB (CD137)): 10200 ng/mL

B17: P018.S.13.A.G04 (antibody, V domains shown)
VH: QSLEESGGRLVTPGTPLTLTCTASGFSLSSYDMSWVRQAPGKGLEYIGYISSSGNTYYASWAKSRFTISKTSTTVDLKITSPTTEDTATYFCAREGDYWDFNLWGPGTLVTVSS
VL: AQVLTQTPSSVSAAVGGTVTINCQASQSISNLLAWYQQKPGQRPRLLIYRASTLASGVPSRFKGSGSGTEFTLTISDLESEDAATYYCAGGFPGLDTGATFGGGTEAVVT
- EC 50 [ng/mL] of agonistic function (IL-8 release from CD137-overexpressing HT1080 cells, antibody cross-linked by F(ab')2 goat anti-human IgG) (human 4-1BB (CD137)): 255000 ng/mL
